Target: DENV NS2B3 protease, active site mutant NS2B3^S135A (coexpressed NS2B hydrophilic core and NS3 prote (Dengue virus (serotype not given)))
Test: native gel or EMSA

cGAS cleavage product C-terminal (CP-C, 125-522) (from UniProt Q8N884 125-522) (domain or fragment)
Kd: 39.2 µM

full-length human cyclic GMP-AMP synthase (cGAS) (from UniProt Q8N884 1-522) (natural protein)
Kd: 21.6 µM

— publication PMC10011430
